“And” between values parts separate entries of the source, which are not always exact repeats. Equal values may be shown once.
B1: NF2 (merlin) isoform 7, human, full length (507 aa, lacks exons 2-3 = isoform-1 residues 39-121; exon-16 C-terminus), P35240-4 (parent)
chain: MAGAIASRMSFSSLKRKQPKTFTVRIVTMDAEMEFNCEVKKQILDEKIYCPPEASVLLASYAVQAKYGDYDPSVHKRGFLAQEELLPKRVINLYQMTPEMWEERITAWYAEHRGRARDEAEMEYLKIAQDLEMYGVNYFAIRNKKGTELLLGVDALGLHIYDPENRLTPKISFPWNEIRNISYSDKEFTIKPLDKKIDVFKFNSSKLRVNKLILQLCIGNHDLFMRRRKADSLEVQQMKAQAREEKARKQMERQRLAREKQMREEAERTRDELERRLLQMKEEATMANEALMRSEETADLLAEKAQITEEEAKLLAQKAAEAEQEMQRIKATAIRTEEEKRLMEQKVLEAEVLALKMAEESERRAKEADQLKQDLQEAREAERRAKQKLLEIATKPTYPPMNPIPAPLPPDIPSFNLIGDSLSFDFKDTDMKRLSMEIEKEKVEYMEKSKHLQEQLNELKTEIEALKLKERETALDILHNENSDRGGSSKHNTIKKPQAQGRRPICI

Variants of: B1
Assay: reverse yeast two-hybrid deep mutational scan (rY2H-seq): NF2 isoform 7 mutant library as bait mated with wild-type prey strains; selection on medium lacking adenine for non-interacting pairs; NextSeq paired-end sequencing; enrichment vs …
Settings: yeast diploids after mating (RBait_S3 x RPrey_S3), 30 °C, selection for reporter genes on NB agar, HIGHER = WEAKER BINDING (the opposite of display enrichments): higher = stronger loss of interaction: reverse Y2H selects yeast in which bait and prey do NOT interact (growth without adenine), so a …, hits-only table, scale: rY2H score, numbering: uniprot, sequence starts at 1
[1] = with EMILIN1 (elastin microfibril interfacer 1), Q9Y6C2, human ABL2 co-expressed as the kinase-dead K35M mutant …
[2] = with EMILIN1 (elastin microfibril interfacer 1), Q9Y6C2, human tyrosine kinase ABL2 co-expressed as the active kinase …
[3] = with KDM1A (lysine-specific histone demethylase 1A; the table's label AOF2 is a gene synonym of KDM1A), O60341, human tyrosine kinase ABL2 co-expressed as the active kinase …
[4] = with PIK3R3 (phosphatidylinositol 3-kinase regulatory subunit gamma), Q92569, human tyrosine kinase ABL2 co-expressed as the active kinase …
[5] = with KDM1A (lysine-specific histone demethylase 1A; the table's label AOF2 is a gene synonym of KDM1A), O60341, human ABL2 co-expressed as the kinase-dead K35M mutant …
[6] = with NF2 C-terminal domain (wild type; homomeric NF2-NF2 interaction), P35240, human ABL2 co-expressed as the kinase-dead K35M mutant …, partner unresolved

| enrichment [1] | enrichment [2] | enrichment [3] | enrichment [4] | enrichment [5] | enrichment [6] | Variant |
| --- | --- | --- | --- | --- | --- | --- |
| 1.72 | 3.25 | 4.1 and 4.23 | 2.99 |  |  | E367A |
| 6.79 | 1.94 |  |  |  |  | E367L |
| 6.81 |  |  |  | 6.54 |  | I418L |
| 1.67 |  |  |  | 1.67 |  | I418K |
| 2.98 |  |  |  |  |  | K427T |
| 3.38 |  |  |  |  |  | L355K |
| 2.38 |  | 4.48 |  |  |  | D484L |
| 2.05 | 2.49 |  |  |  |  | L371K |
| 2.05 |  | 3.23 and 2.41 | 1.56 | 3.12 |  | M401A |
| 2.39 | 2.1 and 5.12 |  |  |  |  | M401W |
| 3.26 and 3.02 | 5.11 and 2.8 | 6.37 and 2.41 | 2.56 | 5.35 and 7.09 | 2.14 and 2.85 | P410L |
| 8.81 | 3.88 |  |  |  |  | R471E |
| 5.29 | 2.04 |  |  |  |  | H491A |
| 1.7 |  |  |  |  | 2.48 | H491K |
| 1.59 |  |  |  |  |  | H491N |
| 2.84 and 2.55 |  |  |  |  |  | E472R |
| 2.04 |  |  | 2.23 |  |  | M431A |
| 5.53 |  |  |  | 3.66 |  | M431E |
| 2.44 and 2.85 | 4.17 and 3.5 | 1.71 and 2.96 | 5 | 1.93 and 2.13 | 2.5 and 3.18 | K340E |
| 2.47 | 2.67 | 3.04 and 2.28 | 1.46 | 3.4 and 3.43 |  | K340A |
| 2.27 | 3.86 and 4.2 |  |  | 2.24 |  | S483A |
| 2.15 | 2.19 |  |  |  | 1.71 | L348E |
| 3.01 | 3.29 |  |  | 4.93 |  | L348S |
| 5.26 |  |  |  |  |  | E337T |
| 2.71 | 4.3 and 3.24 |  |  | 2.29 |  | E337K |
| 2.52 | 3.17 |  |  |  |  | Q373Y |
| 3.21 |  |  |  | 1.93 |  | L422K |

| enrichment [1] | enrichment [2] | enrichment [3] | enrichment [4] | enrichment [5] | enrichment [6] | Variant |
| --- | --- | --- | --- | --- | --- | --- |
| 2.55 |  |  | 3.12 |  |  | R328E |
| 2.29 |  |  |  | 1.66 |  | R328A |
| 3.66 | 4.28 | 6.92 | 4.09 | 2.42 |  | E338A |
| 2.57 | 2.53 |  |  | 5.57 | 3.03 | E338L |
| 2.51 |  |  |  |  |  | E338K |
| 2.09 | 3.21 and 3.14 | 3.57 and 4.04 |  | 4.62 |  | P409A |
| 2.46 |  | 3.03 | 1.63 | 1.48 and 1.82 | 3.35 and 2.55 | P409L |
| 1.99 | 1.99 |  |  | 7.74 |  | E359K |
| 2.36 |  |  |  |  | 2.38 | R384A |
| 3.02 |  |  |  |  |  | E360K |
| 1.51 |  |  |  | 1.6 |  | L353W |
| 8.41 |  |  |  |  |  | L353T |
| 1.89 | 2.45 |  | 1.96 |  |  | Y398L |
| 1.39 and 2 | 1.38 and 1.78 | 2.06 |  | 1.87 |  | Y398F |
| 2.38 |  |  | 5.15 |  |  | D374K |
| 3.93 | 5.99 |  |  | 2.02 | 2.08 | E339T |
| 4.07 and 1.56 | 3.86 | 2.13 | 1.62 | 2.92 | 1.45 | E339K |
| 2.51 | 1.94 |  |  |  |  | E339A |
| 1.69 |  | 3.87 | 2.88 | 2.46 |  | I334K |
| 2.52 |  |  | 2.25 | 4.73 and 1.72 |  | I334E |
| 1.59 and 1.85 |  | 3.11 | 1.39 |  |  | I334L |
| 1.9 | 3.69 |  |  | 2.45 |  | Q324A |
| 1.52 |  |  |  |  | 2.16 | I507R |
| 3.67 |  |  |  |  |  | H479E |
| 2.77 | 1.79 and 2.41 |  |  |  | 1.47 and 2.48 and 1.86 | E382K |
| 2.47 |  | 1.46 |  | 1.58 |  | A333L |

Further lines, the variant ahead of its results:

| Variant | enrichment [1] | enrichment [2] | enrichment [3] | enrichment [4] | enrichment [5] | enrichment [6] |
| --- | --- | --- | --- | --- | --- | --- |
| N165L | 3.15 and 2.54 | 3.7 | 1.81 | 8.43 | 6 and 7.17 | 2.17 and 4.23 |
| E164L | 2.39 |  |  | 2.07 | 3.94 |  |
| L256A | 5.54 |  | 2.38 |  |  |  |
| K313A | 2.05 |  | 3.82 | 3.82 | 1.63 |  |
| T297A | 2.57 |  | 2.94 |  |  |  |
| D30L | 3.86 |  |  |  |  |  |
| D30A | 6.06 |  |  |  |  |  |
| P174T | 2.95 |  |  | 2.16 and 1.7 | 1.5 and 1.57 and 1.64 |  |
| K281A | 6.85 |  |  |  |  |  |
| M280E | 2.68 |  |  |  |  |  |
| E274K | 1.67 |  |  |  |  |  |
| P52E | 9.88 |  |  |  |  |  |
| V74L | 3.98 |  |  |  |  |  |
| V74C | 2.3 |  |  | 1.98 | 2.58 |  |
| E259V | 2.5 | 1.65 | 2.08 | 4.06 and 2.02 | 2.8 | 2.03 |
| E259L | 1.55 | 1.72 |  |  | 3.91 and 3.57 |  |
| T147E | 4.29 |  |  |  |  |  |
| L57E | 1.73 |  |  |  |  |  |
| L301E | 7.29 | 1.77 |  |  | 4.8 | 3.42 |
| A302E | 4.06 |  |  |  | 2.49 and 5 |  |
| Q64A | 2.42 |  |  | 8.91 and 12.3 |  |  |
| L149A | 4.26 | 2.53 and 5.08 |  | 17.7 |  | 2.75 and 3.85 |

| Variant | enrichment [1] | enrichment [2] | enrichment [3] | enrichment [4] | enrichment [5] | enrichment [6] |
| --- | --- | --- | --- | --- | --- | --- |
| R115C | 2.2 |  | 3.91 | 1.62 | 3.51 and 3.33 |  |
| R208C | 2.09 |  |  |  |  |  |
| L291P | 1.99 |  |  |  |  |  |
| K15A | 6.29 | 6.35 and 3.55 | 2.57 | 7.57 | 13.9 |  |
| T308D | 4.89 | 2.02 |  |  | 2.33 | 2.47 |
| T308E | 2.33 |  |  |  |  | 3.16 |
| T97I | 1.62 |  | 1.95 |  |  |  |
| R253K | 5.53 | 10.6 |  |  | 6.44 and 7.44 | 1.43 |
| R226G | 1.63 |  |  |  |  |  |
| L158K | 2.72 | 3.39 and 2.28 |  |  |  |  |
| L158A | 2.28 | 2.56 | 11 |  |  | 1.57 |
| H159S | 21.9 |  |  |  |  | 18 |
| M251A | 3.87 and 2.36 | 6.14 | 2.61 | 4.21 | 4.5 |  |
| L58K | 3.39 | 9.82 and 9.59 | 7.51 |  | 7.46 and 14.7 | 2.82 |
| R104E | 3.93 |  |  |  |  |  |
| T28L | 5.37 |  |  |  |  |  |
| E272A | 3.71 |  |  |  | 2.65 |  |
| D162L | 3.3 |  |  |  | 2.41 | 2.21 |
| A59L | 10.7 and 8.14 |  | 29 | 25.9 | 15.4 | 7.54 |
| S172P | 1.73 |  |  | 2.04 and 2.73 | 1.94 |  |
| A322E | 3.28 |  |  |  |  | 2.97 |

Source: publication PMC10244618
